Data as given in paper PMC4346194 (Structure (London, England : 1993), 2015).
Numbering of substitutions follows the chain as printed.

Key:
Assay in all cases: pull-down
[1] = target: GST-tagged FL-importin α1 (mouse, UniProt P52293 1-529)
[2] = target: T1, GST-tagged FL-importin α3 (RRRR) (human, UniProt O00629 1-521, Q28R)
T1 sequence: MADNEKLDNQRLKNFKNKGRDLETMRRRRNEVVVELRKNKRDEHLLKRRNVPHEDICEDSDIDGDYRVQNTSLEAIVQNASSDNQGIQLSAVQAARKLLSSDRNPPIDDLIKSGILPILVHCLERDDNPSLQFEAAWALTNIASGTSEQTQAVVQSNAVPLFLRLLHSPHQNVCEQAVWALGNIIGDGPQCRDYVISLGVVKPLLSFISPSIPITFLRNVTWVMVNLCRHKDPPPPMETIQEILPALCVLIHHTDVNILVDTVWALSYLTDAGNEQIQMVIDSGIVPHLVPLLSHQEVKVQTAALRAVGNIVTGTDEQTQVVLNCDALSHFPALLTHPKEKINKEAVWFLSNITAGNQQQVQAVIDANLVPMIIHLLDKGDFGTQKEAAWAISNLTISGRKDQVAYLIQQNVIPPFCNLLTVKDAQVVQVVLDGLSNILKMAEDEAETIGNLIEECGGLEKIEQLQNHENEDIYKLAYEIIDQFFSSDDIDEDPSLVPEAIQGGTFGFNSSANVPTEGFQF

[3] = target: T2, GST-tagged FL-importin α3 (human, UniProt O00629 1-521)
T2 sequence: T1 sequence with R28Q

[4] = target: GST-tagged FL-importin α7 (human, UniProt O60684 1-536)

B1: MBP-tagged nucleoplasmin NLS (NP-NLS, res. 155-170) (peptide)
chain: KRPAATKKAGQAKKKK
percent of importin α bound to cargo [1]: 25%
percent of importin α bound to cargo [2]: 27%
percent of importin α bound to cargo [3]: 35%
percent of importin α bound to cargo [4]: 46%
